For test [1], the target named is T1, soluble GPC3 core polypeptide (Homo sapiens (Human), UniProt P51654 25-563).
T1 construct: Immobilized on the ELISA plate at 1 ug/mL; also called glypican 3 antigen; glypican 3
Nature of the test: competitive ELISA against biotinylated H0L0 on immobilized soluble GPC3 core (FIG. 4). Here is the method: (§1) The H0L0 antibody and its point mutation-modified antibodies purified in (1) was evaluated by competitive ELISA. 100 μL of the soluble GPC3 core polypeptide (SEQ ID NO: 13) at 1 μg/mL was added to each well of a 96-well plate. The soluble GPC3 core polypeptide was immobilized on the plate by allowing the plate to stand overnight at 4° C. The soluble GPC3 core polypeptide immobilized on the plate was washed 3 times with a washing buffer using Skan WASHER400 (Molecular Devices); and blocked with 200 μL blocking buffer at 4° C. for at least 30 min. The blocked plate on which soluble GPC3 core polypeptide was immobilized was then washed 3 times with washing buffer using the Skan WASHER400. Subsequently, each well of the plate received 200 μL of a mixture containing 100 μL of biotinylated H0L0 antibody (final concentration=0.3 μg/mL) and 100 μL of the H0L0 antibody or its point mutation-modified antibody (at various concentrations). The H0L0 antibody was biotinylated using Biotin Labeling Kit (Roche) according to the instructions provided with the kit. The plate was left stand for 1 hour at room temperature, then washed 5 times with washing buffer using the Skan WASHER400 (Molecular Devices). […] The absorbance at 405 nm of the reaction solution in each well was measured using Benchmark Plus (BIO-RAD), with the control absorbance at 655 nm.

The target of test [2] is T1, soluble GPC3 core polypeptide. The test is described as follows: competitive ELISA against biotinylated H0L0 on immobilized soluble GPC3 core (FIG. 14). Here is the method:
The H0L0 antibody and its point mutation-modified antibodies purified in (1) was evaluated by competitive ELISA. 100 μL of the soluble GPC3 core polypeptide (SEQ ID NO: 13) at 1 μg/mL was added to each well of a 96-well plate. The soluble GPC3 core polypeptide was immobilized on the plate by allowing the plate to stand overnight at 4° C. The soluble GPC3 core polypeptide immobilized on the plate was washed 3 times with a washing buffer using Skan WASHER400 (Molecular Devices); and blocked with 200 μL blocking buffer at 4° C. for at least 30 min. The blocked plate on which soluble GPC3 core polypeptide was immobilized was then washed 3 times with washing buffer using the Skan WASHER400. Subsequently, each well of the plate received 200 μL of a mixture containing 100 μL of biotinylated H0L0 antibody (final concentration=0.3 μg/mL) and 100 μL of the H0L0 antibody or its point mutation-modified antibody (at various concentrations). The H0L0 antibody was biotinylated using Biotin Labeling Kit (Roche) according to the instructions provided with the kit. The plate was left stand for 1 hour at room temperature, then washed 5 times with washing buffer using the Skan WASHER400 (Molecular Devices). 100 μL goat anti-streptavidin alkaline phosphatase (ZYMED), diluted 20,000× with substrate buffer, was added to each well, and the resulting plate was left stand for 1 hour at room temperature, and then washed 5 times with washing buffer using the Skan WASHER400. Phosphatase Substrate (Sigma) was prepared at 1 mg/mL in the substrate buffer, added at 100 μL per well for 1 hour. The absorbance at 405 nm of the reaction solution in each well was measured using Benchmark Plus (BIO-RAD), with the control absorbance at 655 nm.
The binding activity to the antigen of each constant region pI modified antibody was measured using the method described in Example 1 (FIG. 14).

Test [3] has the same target. Nature of the test: competitive ELISA against biotinylated H0L0 on immobilized soluble GPC3 core (FIG. 5). As for the experimental part: as §1
Test [4] shares this target. Nature of the test: competitive ELISA against biotinylated H0L0 on immobilized soluble GPC3 core (FIG. 10). As for the experimental part: as §1, with “kit.” for “kit. The plate was left stand for 1 hour at room temperature, then washed 5 times with washing buffer using the Skan WASHER400 (Molecular Devices).”
The binding activity to the antigen glypican 3 of each point mutation pI modified antibody was measured using the method described in Example 1 (FIG. 10).

The target is the same in test [5]. Nature of the test: competitive ELISA against biotinylated H0L0 on immobilized soluble GPC3 core (FIG. 6). As for the experimental part:
as §1

Residue numbers refer to the chain shown, from its start. Numbers in names are those of the source.

T1 sequence (P51654 other isoform, or with tags, fused parts or gaps limits assumed): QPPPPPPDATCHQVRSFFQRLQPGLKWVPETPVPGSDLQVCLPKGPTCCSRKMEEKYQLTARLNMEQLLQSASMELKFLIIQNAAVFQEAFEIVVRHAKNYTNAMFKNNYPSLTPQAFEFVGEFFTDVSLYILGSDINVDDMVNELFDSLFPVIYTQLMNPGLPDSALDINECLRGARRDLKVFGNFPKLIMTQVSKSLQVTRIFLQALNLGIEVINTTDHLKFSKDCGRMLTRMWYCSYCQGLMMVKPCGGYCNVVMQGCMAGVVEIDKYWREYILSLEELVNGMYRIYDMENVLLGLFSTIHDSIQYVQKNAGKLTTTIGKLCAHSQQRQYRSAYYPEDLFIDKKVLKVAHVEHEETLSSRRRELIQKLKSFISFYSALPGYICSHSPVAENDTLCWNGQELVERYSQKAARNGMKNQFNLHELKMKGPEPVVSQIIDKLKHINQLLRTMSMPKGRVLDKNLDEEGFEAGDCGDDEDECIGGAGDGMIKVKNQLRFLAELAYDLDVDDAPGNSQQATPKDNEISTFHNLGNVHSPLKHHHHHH

B1: H15L4 antibody (antibody, V domains shown)
VH: QVQLVQSGAEVKKPGASVKVSCKASGYTFTDYEMHWIRQPPGQGLEWIGAIDPKTGDTAYSQKFKGRVTLTADKSTSTAYMELSSLTSEDTAVYYCTRFYSYTYWGQGTLVTVSS
VL: DIVMTQSPLSLPVTPGEPASISCRSSQSLVHSNRNTYLHWYQQKPGQAPRLLIYKVSNRFSGVPDRFSGSGSGTDFTLKISRVEAEDVGVYYCSQNTHVPPTFGQGTKLEIK
notes: Point-mutation modified form of H0L0
B1: the binding result in test [1] was “binds”.

B2: pH7M85pL16 antibody (antibody, human IgG1, V domains shown)
VH: B1 VH with K19T, Q43E, Q62E, K63S, K65Q, G66D
VL: B1 VL with R24Q, S25A, Q27E, Q42L, A48S, R50Q, L109V, K112E
notes: its constant region is not specified; also called pH7M85pL6 [sic]
For B2, in test [2], the binding result is “binds”.

B3: H0M85L0 antibody (antibody, human IgG1, V domains shown)
VH: B1 VH with I37V, P40A, I48M, I51L
VL: B1 VL with I2V, Q42L, A48S, R50Q
notes: its constant region is not specified
Consider B3, for which the binding result in test [2] is listed as “binds”.

B4: pH7pL16 antibody (antibody, IgG1, V domains shown)
VH: B1 VH with K19T, Q43E, Q62E, K63S, K65Q, G66D
VL: B1 VL with R24Q, S25A, Q27E, Q42L, A48S, R50Q, L109V, K112E
notes: Variable regions only
In the case of B4, in test [2], the binding result is reported as “binds”.

B5: Hspu2.2Lspu2.2 (Hu2.2Lu2.2) antibody (antibody, V domains shown)
VH: B1 VH with Q43K, D52N, Q107R
VL: B1 VL with E17Q, S25A, Q27R, Q105R
notes: Raised-pI variant; Hspu2.2 = H15 + Q43K, D52N, Q107R; Lspu2.2 = L4 + E17Q, Q27R, Q105R, S25A
With B5, the binding result in test [3] is “binds”.

B6: pH7pL14 antibody (antibody, V domains shown)
VH: B1 VH with K19T, Q43E, Q62E, K63S, K65Q, G66D
VL: B1 VL with R24Q, S25A, Q27E, Q42L, A48S, R50Q
In the case of B6, the binding result in test [4] was “binds”.

B7: Hspd1.8Lspd1.6 (Hd1.8Ld1.6) antibody (antibody, V domains shown)
VH: B1 VH with K19T, Q43E, K63S, K65Q, G66D
VL: B1 VL with S25A, Q27E, K79T, R82S, V83L, E84Q
notes: Lowered-pI variant; Hspd1.8 = H15 + K19T, Q43E, K63S, K65Q, G66D; Lspd1.6 = L4 + Q27E, KISRVE(79-84) to TISSLQ, S25A
In the case of B7, the binding result in test [5] is reported as “binds”.

B8: humanized H0L0 antibody (antibody, V domains shown)
VH: B1 VH with I37V, P40A, I48M, I51L
VL: B1 VL with I2V, Q42L, A48S, R50Q
notes: the light chain constant region is not specified; also called humanized GC33 antibody
On to B8, for which, in test [2], the binding result is on record as “binds”.

These data come from patent US20150315278A1 (Chugai, published 2015).
